# Measurements: patent US20170166895
# Biological target: Complement component 3 (C3) (Homo sapiens) (UniProt P01024+P01024)
# Assay: filter
# Conditions: 3'-3' idT
# [1] = all P = NapdU, U1 = 2'-OMe-U, 2'-OMe at 1,2,3,5,7,9,10,13,19,20,22-28, C3-spacer replaces C17, SB18T0.01, 37C
# [2] = all U = NapdU, T = dT, SB18T0.01, 37C
# [3] = all U in listing = NapdU, SB18T0.01, 37C
# Chain of Complement component 3 (C3) (Homo sapiens) (P01024 23-667, chain 1 of 2): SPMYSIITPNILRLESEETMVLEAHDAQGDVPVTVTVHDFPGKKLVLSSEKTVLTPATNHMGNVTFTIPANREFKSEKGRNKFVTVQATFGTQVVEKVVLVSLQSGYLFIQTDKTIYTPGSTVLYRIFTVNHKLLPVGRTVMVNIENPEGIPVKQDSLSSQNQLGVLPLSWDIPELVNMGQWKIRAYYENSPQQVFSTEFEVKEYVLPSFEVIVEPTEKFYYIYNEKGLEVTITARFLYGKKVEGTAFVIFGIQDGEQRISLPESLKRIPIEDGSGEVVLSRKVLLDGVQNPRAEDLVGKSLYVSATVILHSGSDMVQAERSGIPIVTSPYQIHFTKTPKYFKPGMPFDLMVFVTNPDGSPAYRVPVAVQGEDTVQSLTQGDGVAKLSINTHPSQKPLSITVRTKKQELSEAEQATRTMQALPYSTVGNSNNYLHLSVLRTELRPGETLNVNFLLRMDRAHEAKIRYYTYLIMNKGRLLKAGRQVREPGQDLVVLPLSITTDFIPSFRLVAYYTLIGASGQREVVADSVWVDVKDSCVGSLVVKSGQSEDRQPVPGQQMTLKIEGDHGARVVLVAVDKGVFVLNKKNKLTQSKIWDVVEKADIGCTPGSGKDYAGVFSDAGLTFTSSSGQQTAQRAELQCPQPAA
# Chain of Complement component 3 (C3) (Homo sapiens) (P01024 672-1663, chain 2 of 2): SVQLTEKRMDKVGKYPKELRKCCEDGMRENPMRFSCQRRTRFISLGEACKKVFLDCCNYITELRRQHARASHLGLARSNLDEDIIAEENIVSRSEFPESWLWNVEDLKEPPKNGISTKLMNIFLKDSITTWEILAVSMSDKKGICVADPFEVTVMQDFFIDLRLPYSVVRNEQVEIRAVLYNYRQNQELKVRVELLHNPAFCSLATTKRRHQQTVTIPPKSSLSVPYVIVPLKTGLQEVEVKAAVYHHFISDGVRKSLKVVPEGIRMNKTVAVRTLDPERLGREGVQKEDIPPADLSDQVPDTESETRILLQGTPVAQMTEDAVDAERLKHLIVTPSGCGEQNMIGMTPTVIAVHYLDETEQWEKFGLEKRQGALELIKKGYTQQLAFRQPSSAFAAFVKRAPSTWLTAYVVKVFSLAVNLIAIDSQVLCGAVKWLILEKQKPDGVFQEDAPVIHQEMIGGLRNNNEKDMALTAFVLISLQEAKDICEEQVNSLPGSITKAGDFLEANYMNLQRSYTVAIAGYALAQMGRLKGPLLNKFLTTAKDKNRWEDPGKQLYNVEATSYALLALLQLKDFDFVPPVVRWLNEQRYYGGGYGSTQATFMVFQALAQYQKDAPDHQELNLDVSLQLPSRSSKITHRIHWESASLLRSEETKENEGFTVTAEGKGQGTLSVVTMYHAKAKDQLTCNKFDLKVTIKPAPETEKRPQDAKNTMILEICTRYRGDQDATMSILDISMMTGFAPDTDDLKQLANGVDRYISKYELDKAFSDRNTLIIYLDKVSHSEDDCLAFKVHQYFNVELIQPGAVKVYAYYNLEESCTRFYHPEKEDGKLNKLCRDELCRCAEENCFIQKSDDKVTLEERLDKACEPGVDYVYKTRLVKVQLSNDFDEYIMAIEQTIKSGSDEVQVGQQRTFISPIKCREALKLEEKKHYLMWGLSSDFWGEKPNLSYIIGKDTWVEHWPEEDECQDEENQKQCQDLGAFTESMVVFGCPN
sequence,measurement,setting,value
CCGUGACUCAAUAGUCCGUACGUUCCCGG [8491-94_33],Kd,"all U = NapdU, C3-spacer replaces G4, SB18T0.01, 37C",0.245 nM
CGGUGACUCAAUAGUCCGUACGUUCCCGG [8491-94_29],Kd,"all U = NapdU, SB18T0.01, 37C",0.0581 nM
CCGGUGACUCAAUAGUCGUACGUUCCCGG [8491-94_43],Kd,"all U = NapdU, C3-spacer replaces C18, SB18T0.01, 37C",0.0142 nM
UGGUGACUCAAUAGUCGUACGUUCCCA [8491-94_137],Kd,[1],0.119 nM
GGGUGACUCAAUAGUCCGUACGUUCCCC [8491-94_127],Kd,"all U = NapdU, 2'-OMe at 1,2,3,5,7,9,10,13,19,20,22-28, SB18T0.01, 37C",0.045 nM
GGGUGACUCAAUAGUCGUACGUUCCCC [8491-94_134],Kd,"all P = NapdU, 2'-OMe at 1,2,3,5,7,9,10,13,19,20,22-28, C3-spacer replaces C17, SB18T0.01, 37C",0.107 nM
CGGUGACUCAAUAGUCGUACGUUCCCG [8491-94_98],Kd,"all U = NapdU, 2'-OMe at 1,2,3,5,7,9,10,13,19,20,22-28, C3-spacer replaces C17, SB18T0.01, 37C",0.095 nM
ACTCCCCGGTGACUCAAUAGUCCGUACGUUCCCGGUCCGAACGCGGAGGA [8491-94_11],Kd,[2],29.5 nM
CCGGUGACUCAUAGUCCGUACGUUCCCGG [8491-94_38],Kd,"all U = NapdU, C3-spacer replaces A11, SB18T0.01, 37C",0.148 nM
CCCCGGUGACUCAAUAGUCCGUACGUUCCCGG [8491-94_25],Kd,"all U = NapdU, SB18T0.01, 37C",0.0928 nM
TGGUGACUCAAUAGUCCGUACGUUCCCA [8491-94_128],Kd,"all P = NapdU, T1 = dT, 2'-OMe at 2,3,5,7,9,10,13,19,20,22-28, SB18T0.01, 37C",0.038 nM
ACTCCUACAAAGCGAUUGGCUCGAUAGUCAGUACGUUUCUCGCUCGAGGA [8491-390_3],Kd,[3],0.412 nM
TGGUGACUCAAUAGUCGUACGUUCCCA [8491-94_129],Kd,"all P = NapdU, T1 = dT, 2'-OMe at 2,3,5,7,9,10,13,19,20,22-28, C3-spacer replaces C17, SB18T0.01, 37C",0.0179 nM
CCGGUGACUCAAUAGUCCGUCGUUCCCGG [8491-94_45],Kd,"all U = NapdU, C3-spacer replaces A21, SB18T0.01, 37C",228 nM
CGGUGACUCAAUAGUCCGUACGUUCCCG [8491-94_59],Kd,"P = NapdU (all U), 2'-OMe C1, SB18T0.01, 5 mM MgCl2, 37 C",0.0342 nM
CGGUGACUCAAUAGUCCGUACGUUCCCGGUCCGAACGCGGAGGA [8491-94_9],Kd,"all U = NapdU, SB18T0.01, 37C",0.243 nM
CGGUGACUCAAUAGUCCGUACGUUCCCG [8491-94_77],Kd,"P = NapdU (all U), 2'-OMe P19, SB18T0.01, 5 mM MgCl2, 37 C",0.0262 nM
CCCCGGUGACUCAAUAGUCCGUACGUUCCCGGUCC [8491-94_24],Kd,"all U = NapdU, SB18T0.01, 37C",0.0535 nM
CGGUGACUCAAUAGUCCGUACGUUCCCG [8491-94_70],Kd,"P = NapdU (all U), 2'-OMe P12, SB18T0.01, 5 mM MgCl2, 37 C",0.338 nM
CCCCGGUGACUCAAUAGUCCGUACGUUCCCGGUCCGAACGCGGAGGA [8491-94_8],Kd,"all U = NapdU, SB18T0.01, 37C",0.0369 nM
ACTCCCCGGUGACUCAAUAGUCCGUACGUU [8491-94_21],Kd,"all U = NapdU, SB18T0.01, 37C",0.249 nM
CGGUGACUCAAUAGUCCGUACGUUCCCG [8491-94_89],Kd,"all U = NapdU, 2'-OMe at 1,3,5,7,10,13,28, SB18T0.01, 37C",0.0173 nM
ACTCCCCGGUGACUCAAUAGUCCGUACGUUCCCGGTCCGAACGCGGAGGA [8491-94_18],Kd,[2],0.0421 nM
CGGUGACUCAAUAGUCGUACGUUCCCG [8491-94_58],Kd,"all U = NapdU, C3-spacer replaces C17, SB18T0.01, 37C",0.787 nM
CGGUGACUCAAUAGUCCGUACGUUCCCG [8491-94_82],Kd,"all U = NapdU, 2'-OMe at NapdU24, SB18T0.01, 37C",0.0118 nM
CGGUGACUCAAUAGUCCGUACGUUCCCG [8491-94_95],Kd,"all U = NapdU, 2'-OMe at 1,2,3,5,7,10,13,19,20,23-28, SB18T0.01, 37C",0.0357 nM
ACTCCUCCCACACGACGAAUUUGACUCAAUAGUCCGUACGUUUUAGAGGA [8491-402_3],Kd,[3],0.0739 nM
ACTCCUCCCUUUGGCUCGAUAGUCGGUACGUUUUGGGGAGGCGUGGAGGA [8491-409_3],Kd,[3],0.316 nM
CGGUGACUCAAUAGUCCGUACGUUCCCG [8491-94_61],Kd,"P = NapdU (all U), 2'-OMe G3, SB18T0.01, 5 mM MgCl2, 37 C",0.0237 nM
CCGGUGACUCAUAGUCCGUACGUUCCCGG [8491-94_39],Kd,"all U = NapdU, C3-spacer replaces A12, SB18T0.01, 37C",0.31 nM
CGGUGACUCAAUAGUCCGUACGUUCCCG [8491-94_65],Kd,"P = NapdU (all U), 2'-OMe C7, SB18T0.01, 5 mM MgCl2, 37 C",0.0316 nM
ACTCCCCGGUGACUCAAUAGUCCGUACGUUCCCGGUCCGAACGC [8491-94_5],Kd,"all U = NapdU, SB18T0.01, 37C",0.0298 nM
CGGUGACUCAAUAGUCCGUACGUUCCCG [8491-94_85],Kd,"P = NapdU (all U), 2'-OMe C27, SB18T0.01, 5 mM MgCl2, 37 C",0.0524 nM
ACTCCAUGUCGGCGUUUGGCUCAAUAGUCCGUACGUUUUACGCGUGAGGA [8491-389_3],Kd,[3],0.0295 nM
ACTCCUACGGUUGGCUCCAUAGUCAGUACGUUUACGAUACCCCGAGGA [8491-282_3],Kd,[3],0.27 nM
CGGUGACUCAAUAGUCCGUACGUUCCCG [8491-94_84],Kd,"P = NapdU (all U), 2'-OMe C26, SB18T0.01, 5 mM MgCl2, 37 C",0.0738 nM
UGGUGACUCAAUAGUCGUACAUUCCCA [8491-94_138],Kd,[1],18.2 nM
CCGGUACUCAAUAGUCCGUACGUUCCCGG [8491-94_34],Kd,"all U = NapdU, C3-spacer replaces G6, SB18T0.01, 37C",14.1 nM
CGGUGACUCAAUAGUCCGUACGUUCCCG [8491-94_74],Kd,"P = NapdU (all U), 2'-OMe C16, SB18T0.01, 5 mM MgCl2, 37 C",0.192 nM
TGGUGACUCAAUAGUCGUATGUUCCCA [8491-94_131],Kd,"all P = NapdU, T = dT, 2'-OMe at 2,3,5,7,9,10,13,19,20,22-28, C3-spacer replaces C17, SB18T0.01, 37C",5.64 nM
CCGGUGACUCAAUAGUCCGUACGUUCCC [8491-94_28],Kd,"all U = NapdU, printed as 2.65-10, SB18T0.01, 37C",0.265 nM
CGGUGACUCAAUAGUCCGUACGUUCCCG [8491-94_96],Kd,"all U = NapdU, 2'-OMe at 1,2,3,5,7,9,10,13,19,20,23-28, SB18T0.01, 37C",0.0364 nM
CGGUGACUCAAUAGUCCGUACGUUCCCG [8491-94_88],Kd,"all U = NapdU, 2'-OMe at 1,3,5,7,13,28, SB18T0.01, 37C",0.0248 nM
CCGGUGCUCAAUAGUCCGUACGUUCCCGG [8491-94_35],Kd,"all U = NapdU, C3-spacer replaces A7, SB18T0.01, 37C",5.67 nM
ACTCCCCGGUGACUCAAUAGUCCGUACGUUCCCGGUCC [8491-94_7],Kd,"all U = NapdU, SB18T0.01, 37C",0.0194 nM
CGGUGACUCAAUAGUCCGUACGUUCCCG [8491-94_75],Kd,"P = NapdU (all U), 2'-OMe C17, SB18T0.01, 5 mM MgCl2, 37 C",0.214 nM
ACTCCGAGCAUUGACUCAAUAGUCCGUACGUUUGGCCGGGCAGGGGAGGA [8491-3_3],Kd,"all U in listing = NapdU, SB18T0.01 (5 mM MgCl2), 37C",0.119 nM
CCGGUGACUCAAUGUCCGUACGUUCCCGG [8491-94_40],Kd,"all U = NapdU, C3-spacer replaces A14, SB18T0.01, 37C",1.99 nM
CGGUGACUCAAUAGUCCGUACGUUCCCG [8491-94_60],Kd,"P = NapdU (all U), 2'-OMe G2, SB18T0.01, 5 mM MgCl2, 37 C",0.0537 nM
ACTCCCCGGUGACUCAAUAGUCCGUACGUUCCCGG [8491-94_19],Kd,"all U = NapdU, SB18T0.01, 37C",0.0559 nM
ACTCCGUCUGGCUAACUUAGUCCGUACGUUCGUGAGCGUGAUUAUGAGGA [8491-397_3],Kd,[3],3.11 nM
ACTCCAGCAACUUGACUCAAUAGUCCGUACGUUUAUGCGAGAACAGAGGA [8491-386_3],Kd,[3],0.104 nM
CGGUGACUCAAUAGUCCGUACGUUCCCG [8491-94_101],Kd,"all U = NapdU, 2'-OMe at 1,2,3,5,7,9,10,13,20,22,25-28, SB18T0.01, 37C",0.219 nM
ACTCCCCGGUGACUCAAUAGUCCGUACGTUCCCGGUCCGAACGCGGAGGA [8491-94_16],Kd,[2],69.4 nM
UGGUGACUCAAUAGUCCGUACAUUCCCA [8491-94_139],Kd,"all P = NapdU, U1 = 2'-OMe-U, 2'-OMe at 1,2,3,5,7,9,10,13,19,20,22-28, SB18T0.01, 37C",26.7 nM
CGGUGACUCAAUAGUCCGUACGUUCCCG [8491-94_80],Kd,"P = NapdU (all U), 2'-OMe G22, SB18T0.01, 5 mM MgCl2, 37 C",0.0678 nM
CGGUGACUCAAUAGUCGUATGUUCCCG [8491-94_133],Kd,"all P = NapdU, T = dT, 2'-OMe at 1,2,3,5,7,9,10,13,19,20 and all residues after T21, C3-spacer replaces C17, SB18T0.01, 37C",5.06 nM
CGGUGACUCAAUAGUCCGUACGUUCCCG [8491-94_67],Kd,"P = NapdU (all U), 2'-OMe C9, SB18T0.01, 5 mM MgCl2, 37 C",0.0699 nM
CCGGUGACUCAAUAGUCCGUACGUUCCGG [8491-94_50],Kd,"all U = NapdU, C3-spacer replaces C28, SB18T0.01, 37C",0.448 nM
CGGUGACUCAAUAGUCCGUACGUUCCCGG [8491-94_31],Kd,"all U = NapdU, C3-spacer replaces C2, SB18T0.01, 37C",0.14 nM
ACTCCACGGUGACUCCAUAGUCCGUACGUUCCCGCGGACGCACCGAGGA [8491-388_3],Kd,[3],0.71 nM
ACTCCCUAUGAGGGCUGAUUCAAUAGUCAGUACGUUCGCCCCAUCGAGGA [8491-399_3],Kd,[3],8.61 nM
CCCGGUGACUCAAUAGUCCGUACGUUCCCGGUCCGAACGCGGAGGA [8491-94_22],Kd,"all U = NapdU, SB18T0.01, 37C",0.103 nM
CCGGUGACUCAAUAGUCCGUACGUUCCCGGUCCGAACGCGGAGGA [8491-94_23],Kd,"all U = NapdU, SB18T0.01, 37C",0.0621 nM
CCGUGACUCAAUAGUCCGUACGUUCCCGG [8491-94_32],Kd,"all U = NapdU, C3-spacer replaces G3, SB18T0.01, 37C",0.78 nM
